Test results published in article PMC8307404, “Crystal Structure-Guided Design of Bisubstrate Inhibitors and Photoluminescent Probes for Protein Kinases of the PIM Family” (Molecules, 2021).
Square brackets hold non-standard residues; d marks the D form. Peptide text beside a SMILES is read from it. * marks the point of attachment. X3 = O=C(CCCCCNCc1nc2c(sc3cc(Br)cnc32)c(=O)[nH]1)*

Columns and labels:
Assay in all cases: Kinase profiling (radiometric filter-binding)
Type in all cases: biochemical
EPH-B1 = biological target: T1, EPH-B1 (Homo sapiens, UniProt P54762); settings: EPH-B1, 1 µM inhibitor; read-out: Residual activity, %
T1 sequence (P54762 18-984): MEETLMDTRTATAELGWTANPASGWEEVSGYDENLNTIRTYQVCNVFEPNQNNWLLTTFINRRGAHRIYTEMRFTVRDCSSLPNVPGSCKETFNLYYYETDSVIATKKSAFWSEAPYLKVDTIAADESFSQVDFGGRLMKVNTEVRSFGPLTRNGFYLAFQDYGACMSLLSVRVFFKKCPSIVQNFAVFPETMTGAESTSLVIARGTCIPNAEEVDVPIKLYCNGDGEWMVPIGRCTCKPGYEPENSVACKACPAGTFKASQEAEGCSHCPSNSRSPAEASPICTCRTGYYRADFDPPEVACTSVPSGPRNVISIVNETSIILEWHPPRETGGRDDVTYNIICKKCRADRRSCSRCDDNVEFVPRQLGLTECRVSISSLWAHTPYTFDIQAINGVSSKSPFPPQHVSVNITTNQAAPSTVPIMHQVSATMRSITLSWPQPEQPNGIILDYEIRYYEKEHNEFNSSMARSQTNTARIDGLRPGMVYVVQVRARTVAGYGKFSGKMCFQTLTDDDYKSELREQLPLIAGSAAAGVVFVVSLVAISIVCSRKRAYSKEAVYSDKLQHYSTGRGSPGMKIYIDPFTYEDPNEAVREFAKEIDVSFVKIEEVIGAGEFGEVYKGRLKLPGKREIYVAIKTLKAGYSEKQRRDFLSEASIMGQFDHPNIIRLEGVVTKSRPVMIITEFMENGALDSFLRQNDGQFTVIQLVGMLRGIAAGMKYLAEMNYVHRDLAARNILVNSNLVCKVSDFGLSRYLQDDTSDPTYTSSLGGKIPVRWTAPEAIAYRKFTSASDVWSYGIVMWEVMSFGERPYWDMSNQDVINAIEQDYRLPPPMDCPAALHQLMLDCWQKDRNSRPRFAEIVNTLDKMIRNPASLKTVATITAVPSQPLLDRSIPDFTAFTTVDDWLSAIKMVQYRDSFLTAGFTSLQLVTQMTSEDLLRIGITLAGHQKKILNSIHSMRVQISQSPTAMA
In short: (§1)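 Screening format: radiometric, filter-based capture of phosphorylated substrate by human kinases. Conditions: ATP at/below KM, inhibitor 1 µM (final total). Output: remaining activity in percent of control.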

p38 MAPK = p38 MAPK (Homo sapiens, UniProt Q15759); settings: second of four lines (Greek letter lost), 1 µM inhibitor, read-out: Residual activity, %
In short: as §1

TTK = biological target: T2, TTK (Homo sapiens, UniProt P33981); settings: 1 µM inhibitor, read-out: Residual activity, %
T2 sequence (P33981 1-857): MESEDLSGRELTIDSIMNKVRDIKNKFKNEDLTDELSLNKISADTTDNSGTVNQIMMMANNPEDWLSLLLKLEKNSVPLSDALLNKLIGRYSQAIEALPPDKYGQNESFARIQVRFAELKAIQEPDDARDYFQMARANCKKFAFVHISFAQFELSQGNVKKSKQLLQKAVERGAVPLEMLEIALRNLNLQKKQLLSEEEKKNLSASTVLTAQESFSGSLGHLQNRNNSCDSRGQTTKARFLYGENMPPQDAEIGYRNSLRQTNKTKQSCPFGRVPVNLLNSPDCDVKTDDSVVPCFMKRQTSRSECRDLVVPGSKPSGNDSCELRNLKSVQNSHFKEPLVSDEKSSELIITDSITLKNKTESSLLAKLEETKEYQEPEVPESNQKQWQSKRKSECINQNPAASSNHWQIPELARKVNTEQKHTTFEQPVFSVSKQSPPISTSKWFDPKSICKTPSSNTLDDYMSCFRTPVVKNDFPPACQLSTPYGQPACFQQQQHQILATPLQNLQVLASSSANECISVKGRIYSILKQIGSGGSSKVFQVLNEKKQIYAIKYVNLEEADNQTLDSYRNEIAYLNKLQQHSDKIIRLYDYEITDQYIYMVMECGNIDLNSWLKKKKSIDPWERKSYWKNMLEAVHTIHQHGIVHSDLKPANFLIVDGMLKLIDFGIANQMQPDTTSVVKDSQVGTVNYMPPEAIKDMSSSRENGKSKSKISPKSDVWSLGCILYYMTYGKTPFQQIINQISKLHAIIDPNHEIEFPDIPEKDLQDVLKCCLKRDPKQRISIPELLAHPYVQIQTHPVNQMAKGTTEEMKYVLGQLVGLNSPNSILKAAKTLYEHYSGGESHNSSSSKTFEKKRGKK
In short: as §1

MINK1 = MINK1 (Homo sapiens, UniProt Q8N4C8); settings: MINK1, 1 µM inhibitor; read-out: Residual activity, %
In short: as §1

MAP4K5 = MAP4K5 (Homo sapiens, UniProt Q9Y4K4); settings: MAP4K5, 1 µM inhibitor; read-out: Residual activity, %
In short: as §1

RSK2 = RSK2 (Homo sapiens, UniProt P51812); settings: RSK2, 1 µM inhibitor; read-out: Residual activity, %
In short: as §1

DAPK1 = DAPK1 (Homo sapiens, UniProt P53355); settings: DAPK1, 1 µM inhibitor; read-out: Residual activity, %
In short: as §1

PRAK = biological target: T3, PRAK (Homo sapiens, UniProt Q8IW41); settings: 1 µM inhibitor, read-out: Residual activity, %
T3 sequence (Q8IW41 1-473): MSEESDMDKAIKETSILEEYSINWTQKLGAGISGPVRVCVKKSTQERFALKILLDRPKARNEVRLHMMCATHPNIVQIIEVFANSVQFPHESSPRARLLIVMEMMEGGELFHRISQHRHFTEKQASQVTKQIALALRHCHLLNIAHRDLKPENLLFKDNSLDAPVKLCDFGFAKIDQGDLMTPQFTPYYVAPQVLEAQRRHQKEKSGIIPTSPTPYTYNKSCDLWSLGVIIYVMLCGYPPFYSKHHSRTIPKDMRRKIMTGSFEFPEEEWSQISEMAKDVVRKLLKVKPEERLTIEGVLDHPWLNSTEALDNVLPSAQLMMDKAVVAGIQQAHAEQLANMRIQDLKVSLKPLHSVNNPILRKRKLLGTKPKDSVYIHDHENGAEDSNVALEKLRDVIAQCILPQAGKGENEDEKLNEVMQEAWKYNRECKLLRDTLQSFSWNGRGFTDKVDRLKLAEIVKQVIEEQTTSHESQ
In short: as §1

Chain of RSK2 (P51812 whole entry): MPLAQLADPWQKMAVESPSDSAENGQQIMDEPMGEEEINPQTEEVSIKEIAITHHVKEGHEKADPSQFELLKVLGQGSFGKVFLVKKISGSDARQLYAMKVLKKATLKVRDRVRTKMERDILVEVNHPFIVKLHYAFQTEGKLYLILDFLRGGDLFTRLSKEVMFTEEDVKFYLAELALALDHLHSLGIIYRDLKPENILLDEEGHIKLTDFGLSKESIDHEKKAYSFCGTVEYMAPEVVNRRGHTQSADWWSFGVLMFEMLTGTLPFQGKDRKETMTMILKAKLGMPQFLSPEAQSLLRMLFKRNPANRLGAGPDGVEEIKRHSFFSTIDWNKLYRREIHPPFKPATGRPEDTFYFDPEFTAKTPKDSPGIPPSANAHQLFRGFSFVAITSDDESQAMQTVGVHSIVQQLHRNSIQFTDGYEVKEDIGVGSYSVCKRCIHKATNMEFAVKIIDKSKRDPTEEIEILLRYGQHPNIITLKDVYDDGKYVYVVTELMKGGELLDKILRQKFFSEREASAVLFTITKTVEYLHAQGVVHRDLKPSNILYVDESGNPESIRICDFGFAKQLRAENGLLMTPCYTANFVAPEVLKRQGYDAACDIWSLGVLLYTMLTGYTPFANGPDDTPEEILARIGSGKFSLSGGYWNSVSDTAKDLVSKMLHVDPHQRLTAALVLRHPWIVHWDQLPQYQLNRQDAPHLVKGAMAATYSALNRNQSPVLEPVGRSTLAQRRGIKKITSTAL
Chain of MAP4K5 (Q9Y4K4 whole entry): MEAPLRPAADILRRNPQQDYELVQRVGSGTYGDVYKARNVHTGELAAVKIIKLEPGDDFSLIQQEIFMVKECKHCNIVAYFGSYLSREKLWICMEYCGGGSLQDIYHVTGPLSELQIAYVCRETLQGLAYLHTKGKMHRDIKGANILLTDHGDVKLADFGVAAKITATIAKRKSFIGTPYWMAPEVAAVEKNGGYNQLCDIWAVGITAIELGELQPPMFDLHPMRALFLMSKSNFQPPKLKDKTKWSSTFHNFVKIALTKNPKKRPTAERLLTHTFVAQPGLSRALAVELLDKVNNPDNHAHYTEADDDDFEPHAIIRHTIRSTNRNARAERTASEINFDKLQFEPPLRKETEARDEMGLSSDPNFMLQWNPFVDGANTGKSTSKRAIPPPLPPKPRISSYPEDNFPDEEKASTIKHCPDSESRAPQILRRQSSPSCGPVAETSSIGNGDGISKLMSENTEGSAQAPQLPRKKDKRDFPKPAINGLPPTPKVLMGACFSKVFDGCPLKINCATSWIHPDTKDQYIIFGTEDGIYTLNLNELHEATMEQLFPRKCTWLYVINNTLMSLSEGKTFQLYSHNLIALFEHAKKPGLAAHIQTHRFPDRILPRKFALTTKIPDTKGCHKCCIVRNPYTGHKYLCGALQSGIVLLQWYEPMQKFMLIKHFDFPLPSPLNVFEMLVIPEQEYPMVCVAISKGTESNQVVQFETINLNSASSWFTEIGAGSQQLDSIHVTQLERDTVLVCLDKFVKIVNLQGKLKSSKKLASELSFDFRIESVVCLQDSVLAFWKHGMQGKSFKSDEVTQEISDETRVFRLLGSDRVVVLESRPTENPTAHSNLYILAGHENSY
Chain of MINK1 (Q8N4C8 whole entry): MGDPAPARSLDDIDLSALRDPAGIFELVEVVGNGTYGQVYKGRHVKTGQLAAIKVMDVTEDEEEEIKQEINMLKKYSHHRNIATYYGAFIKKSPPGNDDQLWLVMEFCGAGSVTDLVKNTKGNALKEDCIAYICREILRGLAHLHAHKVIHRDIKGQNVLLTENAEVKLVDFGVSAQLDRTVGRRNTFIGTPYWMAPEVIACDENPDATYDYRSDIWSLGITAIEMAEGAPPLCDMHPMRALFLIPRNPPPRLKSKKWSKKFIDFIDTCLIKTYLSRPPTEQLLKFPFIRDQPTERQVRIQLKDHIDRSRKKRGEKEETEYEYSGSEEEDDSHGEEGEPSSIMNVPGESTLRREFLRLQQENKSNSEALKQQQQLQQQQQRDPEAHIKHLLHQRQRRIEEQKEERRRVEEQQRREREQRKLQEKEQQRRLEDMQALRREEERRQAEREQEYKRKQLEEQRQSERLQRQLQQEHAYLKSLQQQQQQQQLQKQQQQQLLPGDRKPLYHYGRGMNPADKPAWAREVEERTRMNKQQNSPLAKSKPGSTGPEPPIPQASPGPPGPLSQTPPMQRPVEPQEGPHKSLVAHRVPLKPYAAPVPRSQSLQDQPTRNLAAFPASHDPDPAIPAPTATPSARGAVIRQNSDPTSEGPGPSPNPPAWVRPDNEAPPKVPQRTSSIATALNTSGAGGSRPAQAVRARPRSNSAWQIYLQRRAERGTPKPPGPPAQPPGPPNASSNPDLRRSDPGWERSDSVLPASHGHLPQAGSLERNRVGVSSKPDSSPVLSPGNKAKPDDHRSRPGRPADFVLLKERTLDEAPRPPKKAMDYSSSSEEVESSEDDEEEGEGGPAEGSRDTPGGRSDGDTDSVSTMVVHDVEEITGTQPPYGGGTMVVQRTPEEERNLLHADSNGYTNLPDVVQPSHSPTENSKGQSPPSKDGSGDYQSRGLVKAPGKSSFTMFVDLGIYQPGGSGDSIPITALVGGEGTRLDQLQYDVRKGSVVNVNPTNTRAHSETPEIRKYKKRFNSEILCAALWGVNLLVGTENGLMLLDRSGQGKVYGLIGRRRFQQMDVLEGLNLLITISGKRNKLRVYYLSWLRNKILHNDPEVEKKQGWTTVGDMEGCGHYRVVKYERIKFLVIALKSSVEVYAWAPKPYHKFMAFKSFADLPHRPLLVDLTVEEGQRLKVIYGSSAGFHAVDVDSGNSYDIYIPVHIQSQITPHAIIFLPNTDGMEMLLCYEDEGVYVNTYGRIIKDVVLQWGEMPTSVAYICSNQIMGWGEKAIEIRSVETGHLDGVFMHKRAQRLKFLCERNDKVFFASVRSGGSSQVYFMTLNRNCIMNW
Chain of DAPK1 (P53355 whole entry): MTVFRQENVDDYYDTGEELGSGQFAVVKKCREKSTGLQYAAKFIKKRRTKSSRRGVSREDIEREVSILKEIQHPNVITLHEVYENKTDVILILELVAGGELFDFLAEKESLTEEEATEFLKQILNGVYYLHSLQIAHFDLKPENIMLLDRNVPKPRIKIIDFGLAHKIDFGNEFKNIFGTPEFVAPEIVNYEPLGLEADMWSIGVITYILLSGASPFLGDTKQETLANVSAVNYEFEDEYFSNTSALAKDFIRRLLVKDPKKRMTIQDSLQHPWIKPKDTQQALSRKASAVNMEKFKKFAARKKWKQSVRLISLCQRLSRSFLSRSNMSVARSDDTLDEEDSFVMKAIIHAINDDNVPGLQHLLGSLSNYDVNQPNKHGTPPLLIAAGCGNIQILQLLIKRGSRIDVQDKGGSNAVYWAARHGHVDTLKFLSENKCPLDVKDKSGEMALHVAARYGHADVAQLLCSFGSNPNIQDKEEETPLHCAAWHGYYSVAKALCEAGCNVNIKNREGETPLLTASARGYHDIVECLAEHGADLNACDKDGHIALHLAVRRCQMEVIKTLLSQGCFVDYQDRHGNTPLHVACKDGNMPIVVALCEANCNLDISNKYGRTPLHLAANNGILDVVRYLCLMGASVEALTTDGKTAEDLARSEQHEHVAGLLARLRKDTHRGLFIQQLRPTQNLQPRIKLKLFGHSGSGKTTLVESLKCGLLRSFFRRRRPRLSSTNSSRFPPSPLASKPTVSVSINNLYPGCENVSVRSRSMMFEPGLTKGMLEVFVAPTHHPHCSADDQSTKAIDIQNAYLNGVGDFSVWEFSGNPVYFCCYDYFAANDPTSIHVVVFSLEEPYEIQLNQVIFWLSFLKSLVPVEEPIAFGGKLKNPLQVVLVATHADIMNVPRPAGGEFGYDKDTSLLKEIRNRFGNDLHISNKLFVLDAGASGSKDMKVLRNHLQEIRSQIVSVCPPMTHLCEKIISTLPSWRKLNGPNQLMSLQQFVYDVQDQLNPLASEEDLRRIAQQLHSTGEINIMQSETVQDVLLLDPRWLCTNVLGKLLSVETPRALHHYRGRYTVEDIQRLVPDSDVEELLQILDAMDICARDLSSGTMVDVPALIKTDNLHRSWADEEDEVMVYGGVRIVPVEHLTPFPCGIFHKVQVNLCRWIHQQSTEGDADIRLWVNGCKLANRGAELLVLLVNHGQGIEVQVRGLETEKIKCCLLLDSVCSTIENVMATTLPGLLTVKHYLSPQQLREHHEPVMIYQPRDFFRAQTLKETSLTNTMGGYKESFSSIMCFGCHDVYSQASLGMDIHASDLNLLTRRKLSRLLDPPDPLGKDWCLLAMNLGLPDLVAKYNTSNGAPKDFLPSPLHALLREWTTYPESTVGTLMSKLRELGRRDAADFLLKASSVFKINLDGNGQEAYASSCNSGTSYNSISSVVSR
Chain of p38 MAPK (Q15759 whole entry): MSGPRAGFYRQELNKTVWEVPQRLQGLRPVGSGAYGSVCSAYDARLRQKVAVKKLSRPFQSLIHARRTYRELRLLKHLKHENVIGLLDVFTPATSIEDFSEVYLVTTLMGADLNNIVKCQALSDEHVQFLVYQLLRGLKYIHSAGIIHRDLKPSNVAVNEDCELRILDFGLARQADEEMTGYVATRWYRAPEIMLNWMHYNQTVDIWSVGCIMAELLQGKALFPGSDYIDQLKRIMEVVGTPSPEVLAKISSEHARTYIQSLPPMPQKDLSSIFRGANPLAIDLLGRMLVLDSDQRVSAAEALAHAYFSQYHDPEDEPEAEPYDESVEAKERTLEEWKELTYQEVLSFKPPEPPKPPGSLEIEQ

Row | SMILES | remaining activity at 1 µM (EPH-B1) | remaining activity at 1 µM (p38 MAPK) | remaining activity at 1 µM (TTK) | remaining activity at 1 µM (MINK1) | remaining activity at 1 µM (MAP4K5) | remaining activity at 1 µM (RSK2) | remaining activity at 1 µM (DAPK1) | remaining activity at 1 µM (PRAK)
1 | N=C(N)NCCC[C@@H](NC(=O)CCCCCNC(=O)Cn1cnc2c(I)c(I)c(I)c(I)c21)C(=O)N[C@H](CCCNC(=N)N)C(=O)N[C@H](CCCNC(=N)N)C(=O)N[C@H](CCCNC(=N)N)C(=O)N[C@H](CCCNC(=N)N)C(=O)N[C@H](CCCNC(=N)N)C(=O)N[C@H](CCCCN)C(N)=O [ARC-3125, TIBI-CH2-C(=O)-Ahx-(D-Arg)6-D-Lys-NH2] | 106 ± 12% | 80 ± 6% | 45 ± 1% | 86 ± 1% | 102 ± 3% | 17 ± 1% | 18 ± 1% | 112 ± 3%
2 | N=C(N)NCCC[C@@H](NC(=O)CNC(=O)[C@@H](CCCNC(=N)N)NC(=O)[C@@H](CCCNC(=N)N)NC(=O)CCCCCCCNCc1nc2c(sc3cc(Br)cnc32)c(=O)[nH]1)C(=O)N[C@H](CCCCN)C(N)=O [Compound 1, BPTP-Aoc-(D-Arg)2-Gly-D-Arg-D-Lys-NH2] | 103 ± 9% | 108 ± 14% | 113% | 129 ± 2% | 107 ± 12% | 109 ± 11% | 85 ± 3% | 104 ± 13%
3 | N=C(N)NCCC[C@@H](NC(=O)CCCCCNCc1nc2c(sc3cc(Br)cnc32)c(=O)[nH]1)C(=O)N[C@H](CCCNC(=N)N)C(=O)N[C@H](CCCNC(=N)N)C(=O)N[C@H](CCCNC(=N)N)C(=O)N[C@H](CCCNC(=N)N)C(=O)N[C@H](CCCNC(=N)N)C(=O)N[C@H](CCCCN)C(N)=O [ARC-3126, BPTP-Ahx-(D-Arg)6-D-Lys-NH2] (X3-[dR][dR][dR][dR][dR][dR][dK]-NH2) | 96 ± 6% | 94 ± 4% | 110 ± 4% | 104 ± 16% | 50 ± 12% | 86 ± 15% | 49 ± 18% | 97 ± 7%
4 | N=C(N)NCCC[C@@H](NC(=O)CNC(=O)[C@@H](CCCNC(=N)N)NC(=O)[C@@H](CCCNC(=N)N)NC(=O)Cn1cc(CNCc2nc3c(sc4ccc(Br)cc43)c(=O)[nH]2)nn1)C(=O)N[C@H](CCCCN)C(N)=O [Compound 3, BBTP-Amt-(D-Arg)2-Gly-D-Arg-D-Lys-NH2] | 106 ± 11% | 100 ± 6% | 86 ± 9% | 133 ± 14% | 98 ± 3% | 106 ± 11% | 88 ± 3% | 79 ± 7%
5 | N=C(N)NCCC[C@@H](NC(=O)CNC(=O)[C@@H](CCCNC(=N)N)NC(=O)[C@@H](CCCNC(=N)N)NC(=O)CCCCCCCNCc1nc2c(sc3ccc(Br)cc32)c(=O)[nH]1)C(=O)N[C@H](CCCCN)C(N)=O [Compound 2, BBTP-Aoc-(D-Arg)2-Gly-D-Arg-D-Lys-NH2] | 99 ± 15% | 113 ± 4% | 94 ± 15% | 106 ± 13% | 112 ± 10% | 92 ± 10% | 60 ± 11% | 89%
